How the values were obtained:
human CD9 = target: T1, human CD9 (human, UniProt P21926 2-228); assay: selection on cells expressing full-length CD9; method not described
T1 construct: The cells expressing full-length CD9 that were used to select the antibodies are not described; In the functional assays CD9 stands on human PBMC; also called full-length cell-expressed CD9; Tetraspanin-29
T1 sequence: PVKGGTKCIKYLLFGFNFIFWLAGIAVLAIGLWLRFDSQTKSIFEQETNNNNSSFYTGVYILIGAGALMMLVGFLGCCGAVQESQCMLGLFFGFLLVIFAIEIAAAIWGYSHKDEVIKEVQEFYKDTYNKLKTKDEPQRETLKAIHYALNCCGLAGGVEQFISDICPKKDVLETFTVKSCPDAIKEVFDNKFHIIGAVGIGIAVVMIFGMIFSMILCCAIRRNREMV

[1] = target: T2, recombinant human CD9 long extracellular loop 2-human Fc fusion protein (10015-CD, R&D Systems) (human, UniProt P21926 112-195); assay: biolayer interferometry (Octet RED384), CD9 loop 2-human Fc captured on AHC biosensors, Fab at 10 µg/mL
T2 construct: Bought reagent; also called CD9-loop2; long extracellular loop 2 peptide; not shown: human Fc
T2 sequence: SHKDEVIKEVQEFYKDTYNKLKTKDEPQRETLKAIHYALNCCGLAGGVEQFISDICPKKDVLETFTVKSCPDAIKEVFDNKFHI
Description: CD9 contains two extracellular loops: a short extracellular loop (loop 1: 34-55 in SEQ ID NO:2) and a long extracellular loop (loop 2: 112-195 in SEQ ID NO:2). We used biolayer interferometry to assess binding of our panel of CD9 Fab-Y antibodies (selected for their ability to bind full-length cell-expressed CD9) to the long extracellular loop 2 peptide, using the Octet® RED384 System (ForteBio) with Anti-hlgG Fc Capture (AHC) Biosensors (ForteBio) at room temperature. Firstly, an array of 8 sensors was dipped in kinetics buffer (PBS 0.1%, BSA 0.02%, Tween 20) for 120 seconds to provide a baseline signal. Sensors were then moved to wells containing 200 μl of recombinant human CD9 long extracellular loop 2-human Fc fusion protein (10015-CD, R&D Systems®) at 2 μg/mL in kinetics buffer to immobilize the protein to the biosensor (100 seconds), followed by a second baseline step (180 seconds) in kinetics buffer to equilibrate the biosensors now coated with the CD9 long extracellular loop 2-human Fc fusion protein. No detachment of the peptide was observed during this step. Sensors were then dipped in wells containing one of the anti-CD9 Fab (10 μg/mL) to evaluate association of each antibody to CD9-loop2 (120 seconds), followed by dissociation in kinetics buffer (600 seconds). Anti-CD137 Fab-Y (11175) was used as negative control during the antibody association step. […]

B1: anti-CD9 Fab-Y antibody 7272 (Fab, V domains shown)
VH: QSLEESGGRLVTPGTPLTLTCTVSGFSLSSYAMGWVRQAPGKGLEWIGAIGSITATGYARWAKGRFSISKTSTTVDLKMTSPTTEDTATYFCAREIYVGSAYAFDIWGPGTLVTVSS
VL: AYDMTQTPASVEVAVGDTVTIKCQASQSISNYLAWYQQKPGQPPKLLIYLASTLASGVPSRFKGSGSGTEFTLTISDLECADAATYYCQQGYIDNVNKGFGGGTEVVVK
notes: also called VR7272
binding result (human CD9): binds
binding result [1]: binds
